# Article PMC9335266 (Proceedings of the National Academy of Sciences of the …, 2022)
# Target: TRIM7^B30.2 (PRY-SPRY domain of human TRIM7, residues 338-511) (human, UniProt Q9C029 338-511)
# Assay: ITC
binder,measurement,value
"KRKLDTYLQ [GN1 peptide (KRKLDTYLQ), Ct-nonapeptide of glycogenin-1]",Kd,2700 nM
